Target: T1, human DR3 (full length, on cells) (human) (UniProt Q93038)
T1 sequence: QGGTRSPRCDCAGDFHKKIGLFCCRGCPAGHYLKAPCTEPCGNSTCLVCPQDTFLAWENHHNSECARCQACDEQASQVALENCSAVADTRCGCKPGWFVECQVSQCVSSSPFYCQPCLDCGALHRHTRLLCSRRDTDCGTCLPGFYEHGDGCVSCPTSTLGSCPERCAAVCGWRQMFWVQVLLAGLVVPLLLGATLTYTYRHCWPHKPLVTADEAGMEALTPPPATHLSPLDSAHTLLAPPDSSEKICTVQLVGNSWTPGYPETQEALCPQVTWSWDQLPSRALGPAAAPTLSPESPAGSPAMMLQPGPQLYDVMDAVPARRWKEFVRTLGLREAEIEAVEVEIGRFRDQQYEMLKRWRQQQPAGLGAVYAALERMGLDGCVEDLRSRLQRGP
Test: cell-based or functional assay

- fold response, DR3 reporter, 40 ng/ml TL1A alone: 32.8 fold
B1: TL1A (R&D Systems) (ligand, UniProt O95150 72-251, looked up)
chain: LKGQEFAPSHQQVYAPLRADGDKPRAHLTVVRQTPTQHFKNQFPALHWEHELGLAFTKNRMNYTNKFLLIPESGDYFIYSQVTFRGMTSECSEIRQAGRPNKPDSITVVITKVTDSYPEPTQLLMGTKSVCEVGSNWFQPIYLGAMFSLQEGDKLMVNVSDISLVDYTKEDKTFFGAFLL

— patent publication US20170305994A1
